pKd: −log10 of the molar value.
Legend:
[1] = biological target: biotinylated human FcRn (hFcRn; p51 subunit residues 24-297 with C-terminal Avi-tag, β2-m residues 21-119) (human) (UniProt P55899); assay: Biacore SPR; pH 6.0 affinity (M^-1) over pH 7.4 steady state RU
[2] = biological target: biotinylated human FcRn (hFcRn; p51 subunit residues 24-297 with C-terminal Avi-tag, β2-m residues 21-119) (human) (UniProt P55899); assay: Biacore SPR; second ratio column (inverse of c7)
[3] = biological target: biotinylated human FcRn (hFcRn; p51 subunit residues 24-297 with C-terminal Avi-tag, β2-m residues 21-119) (human) (UniProt P55899); assay: Biacore SPR, pH 7.4, steady state, 1000 nM antibody
[4] = biological target: biotinylated human FcRn (hFcRn; p51 subunit residues 24-297 with C-terminal Avi-tag, β2-m residues 21-119) (human) (UniProt P55899); assay: Biacore SPR, pH 6.0, apparent affinity
[5] = biological target: biotinylated hFcRn (human) (UniProt P55899); assay: SPR Biacore, pH 6.0
rFcRn (rat) [6] = biological target: rFcRn (rat) (UniProt P13599); assay: SPR Biacore, pH 6.0
[7] = biological target: biotinylated hFcRn (human) (UniProt P55899); assay: SPR Biacore, pH 7.4
rFcRn (rat) [8] = biological target: rFcRn (rat) (UniProt P13599); assay: SPR Biacore, pH 7.4

Chain of rFcRn (rat) (P13599 23-298 limits assumed, form in doubt, chain 1 of 2): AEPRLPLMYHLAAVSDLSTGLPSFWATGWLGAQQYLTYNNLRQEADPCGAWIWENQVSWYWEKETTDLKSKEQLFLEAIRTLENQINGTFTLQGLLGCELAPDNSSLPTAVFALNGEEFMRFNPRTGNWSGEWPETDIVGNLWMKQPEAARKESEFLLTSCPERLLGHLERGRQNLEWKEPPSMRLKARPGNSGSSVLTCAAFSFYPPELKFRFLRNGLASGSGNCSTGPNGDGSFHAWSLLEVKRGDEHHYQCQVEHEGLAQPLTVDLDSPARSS
Chain of rFcRn (rat) (P07151 21-119 limits assumed, form in doubt, chain 2 of 2, further chain): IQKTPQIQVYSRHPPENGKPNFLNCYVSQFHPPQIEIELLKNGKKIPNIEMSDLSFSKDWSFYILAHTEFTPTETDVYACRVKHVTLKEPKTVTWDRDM
Chain of biotinylated hFcRn (human) (P55899 24-297 limits assumed, form in doubt, chain 1 of 2): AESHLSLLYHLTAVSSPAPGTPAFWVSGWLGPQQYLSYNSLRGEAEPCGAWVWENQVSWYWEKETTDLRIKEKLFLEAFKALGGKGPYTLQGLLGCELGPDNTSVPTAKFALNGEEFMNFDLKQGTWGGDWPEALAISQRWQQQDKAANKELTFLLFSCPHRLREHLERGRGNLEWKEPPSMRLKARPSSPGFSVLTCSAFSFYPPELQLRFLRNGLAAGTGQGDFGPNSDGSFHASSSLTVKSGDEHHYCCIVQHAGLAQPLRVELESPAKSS
Chain of biotinylated hFcRn (human) (P61769 21-119 limits assumed, form in doubt, chain 2 of 2, further chain): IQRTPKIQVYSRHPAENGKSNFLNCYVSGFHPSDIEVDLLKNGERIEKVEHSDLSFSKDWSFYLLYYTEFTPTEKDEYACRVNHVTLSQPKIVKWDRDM
Chain of biotinylated human FcRn (hFcRn; p51 subunit residues 24-297 with C-terminal Avi-tag, β2-m residues 21-119) (human) (P55899 24-297, form in doubt, chain 1 of 2): as the sequence (P55899 24-297 limits assumed, form in doubt, chain 1 of 2) above
Chain of biotinylated human FcRn (hFcRn; p51 subunit residues 24-297 with C-terminal Avi-tag, β2-m residues 21-119) (human) (P61769 21-119, form in doubt, chain 2 of 2, further chain): as the sequence (P61769 21-119 limits assumed, form in doubt, chain 2 of 2, further chain) above

| Substance | Ratio (pH 6.0/pH 7.4) [1] | Ratio (pH 6.0/pH 7.4) [2] | Steady State Binding, pH 7.4 (RU) [3] [RU] | Ka [4] [M⁻¹] | Ratio (pH 7.4/pH 6.0) [2] | also measured |
| --- | --- | --- | --- | --- | --- | --- |
| mAb1 AAA variant (T307A/E380A/N434A) (antibody) | 40400 | 2.47e-05 | 13.9 | 562000 |  |  |
| mAb1 LS variant (M428L/N434S) (antibody) | 201000 | 4.97e-06 | 18.3 | 3.68e+06 |  |  |
| mAb1 M252Y/N434F (antibody) |  |  |  |  |  | pKd [5]: 7.74; koff [5]: 0.023 s⁻¹; kon [5]: 1.27e+06 M⁻¹ s⁻¹; pKd (rFcRn (rat) [6]): 9.54; koff (rFcRn (rat) [6]): 0.00012 s⁻¹; kon (rFcRn (rat) [6]): 403000 M⁻¹ s⁻¹; Steady State RU [7]: 43.8 RU; Steady State RU (rFcRn (rat) [8]): 79.3 RU |
| mAb1 M252Y/N434Y (antibody) |  |  |  |  |  | pKd [5]: 8.08; koff [5]: 0.0171 s⁻¹; kon [5]: 2.06e+06 M⁻¹ s⁻¹; pKd (rFcRn (rat) [6]): 9.59; koff (rFcRn (rat) [6]): 0.00014 s⁻¹; kon (rFcRn (rat) [6]): 540000 M⁻¹ s⁻¹; Steady State RU [7]: 54.1 RU; Steady State RU (rFcRn (rat) [8]): 67.9 RU |
| mAb1 MDQF variant (T256D/T307Q/N434F) (antibody) | 120000 |  | 55.3 | 6.62e+06 | 8.35e-06 |  |
| mAb1 MDQN variant (T256D/T307Q) (antibody) | 403000 | 2.48e-06 | 10.7 | 4.31e+06 |  |  |
| mAb1 MDQY variant (T256D/T307Q/N434Y) (antibody) | 747000 |  | 49.4 | 3.69e+07 | 1.34e-06 |  |
| mAb1 MDTF variant (T256D/N434F) (antibody) | 1.14e+06 | 8.74e-07 | 29.2 | 3.34e+07 |  |  |
| mAb1 MDTY variant (T256D/N434Y) (antibody) | 1.73e+06 | 5.79e-07 | 37.1 | 6.41e+07 |  |  |
| mAb1 MDWF variant (T256D/T307W/N434F) (antibody) | 597000 |  | 47.1 | 2.81e+07 | 1.68e-06 |  |
| mAb1 MDWN variant (T256D/T307W) (antibody) | 485000 | 2.06e-06 | 12.2 | 5.92e+06 |  |  |
| mAb1 MEQF variant (T256E/T307Q/N434F) (antibody) |  |  |  | 142000 |  |  |
| mAb1 MEQN variant (T256E/T307Q) (antibody) |  |  |  | 2e+06 |  |  |
| mAb1 MEQY variant (T256E/T307Q/N434Y) (antibody) | 617000 |  | 38.6 | 2.38e+07 | 1.62e-06 |  |
| mAb1 METF variant (T256E/N434F) (antibody) | 549000 | 1.82e-06 | 23.3 | 1.28e+07 |  |  |
| mAb1 METY variant (T256E/N434Y) (antibody) | 597000 | 1.68e-06 | 26.8 | 1.6e+07 |  |  |
| mAb1 MEWF variant (T256E/T307W/N434F) (antibody) | 1.34e+06 |  | 41.9 | 5.62e+07 | 7.46e-07 |  |
| mAb1 MEWN variant (T256E/T307W) (antibody) |  |  |  | 3.1e+06 |  |  |
| mAb1 MEWY variant (T256E/T307W/N434Y) (antibody) | 1.51e+06 |  | 46.6 | 7.04e+07 | 6.62e-07 |  |
| mAb1 MTQF variant (T307Q/N434F) (antibody) | 681000 | 1.47e-06 | 34.2 | 2.33e+07 |  |  |

| Substance | Ratio (pH 6.0/pH 7.4) [1] | Ratio (pH 6.0/pH 7.4) [2] | Steady State Binding, pH 7.4 (RU) [3] [RU] | Ka [4] [M⁻¹] | Ratio (pH 7.4/pH 6.0) [2] | also measured |
| --- | --- | --- | --- | --- | --- | --- |
| mAb1 MTQY variant (T307Q/N434Y) (antibody) | 805000 | 1.24e-06 | 38.4 | 3.09e+07 |  |  |
| mAb1 MTWF variant (T307W/N434F) (antibody) | 859000 | 1.16e-06 | 30.5 | 2.62e+07 |  |  |
| mAb1 MTWY variant (T307W/N434Y) (antibody) | 1.25e+06 | 8e-07 | 37.2 | 4.65e+07 |  |  |
| mAb1 T256E/T307Q (antibody) |  |  |  |  |  | pKd [5]: 6.30; pKd (rFcRn (rat) [6]): 7.97; Steady State RU (rFcRn (rat) [8]): 23.4 RU |
| mAb1 T256E/T307W (antibody) |  |  |  |  |  | pKd [5]: 6.49; pKd (rFcRn (rat) [6]): 7.97; Steady State RU (rFcRn (rat) [8]): 33 RU |
| mAb1 YDQN variant (M252Y/T256D/T307Q) (antibody) | 439000 |  | 19.8 | 8.7e+06 | 2.28e-06 |  |
| mAb1 YDTF variant (M252Y/T256D/N434F) (antibody) | 513000 |  | 57.7 | 2.96e+07 | 1.95e-06 |  |
| mAb1 YDTN variant (M252Y/T256D) (antibody) | 1.1e+06 | 9.07e-07 | 9.7 | 1.07e+07 |  |  |
| mAb1 YDWN variant (M252Y/T256D/T307W) (antibody) | 390000 |  | 25.9 | 1.01e+07 | 2.56e-06 |  |
| mAb1 YEQN variant (M252Y/T256E/T307Q) (antibody) | 302000 |  | 15.2 | 4.59e+06 | 3.31e-06 |  |
| mAb1 YETN variant (M252Y/T256E) (antibody) | 797000 |  | 9.8 | 7.81e+06 | 1.25e-06 |  |
| mAb1 YETY variant (M252Y/T256E/N434Y) (antibody) | 1.48e+06 |  | 22.6 | 3.34e+07 | 6.77e-07 |  |
| mAb1 YEWN variant (M252Y/T256E/T307W) (antibody) | 92100 |  | 69.6 | 6.41e+06 | 1.09e-05 |  |
| mAb1 YTE variant (M252Y/S254T/T256E) (antibody) | 221000 | 4.52e-06 | 13.2 | 2.92e+06 |  |  |
| mAb1 YTQF variant (M252Y/T307Q/N434F) (antibody) | 943000 |  | 59.9 | 5.65e+07 | 1.06e-06 |  |
| mAb1 YTQN variant (M252Y/T307Q) (antibody) | 340000 |  | 10.6 | 3.6e+06 |  | Ratio (pH 7.4 steady state RU / pH 6.0 affinity) [2]: 2.94e-06 |
| mAb1 YTQY variant (M252Y/T307Q/N434Y) (antibody) | 885000 |  | 71.5 | 6.33e+07 | 1.13e-06 |  |
| mAb1 YTTF variant (M252Y/N434F) (antibody) | 1.27e+06 |  | 43.8 | 5.56e+07 | 7.88e-07 |  |
| mAb1 YTWF variant (M252Y/T307W/N434F) (antibody) | 1.04e+06 |  | 62.6 | 6.54e+07 |  | Ratio (pH 7.4 steady-state RU / pH 6.0 affinity) [2]: 9.57e-07 |
| mAb1 YTWN variant (M252Y/T307W) (antibody) | 533000 |  | 15.9 | 8.47e+06 | 1.88e-06 |  |

Source: US20190263934A1
